US12060408B2, “Screening assays, modulators and modulation of activation of Receptor for Advanced Glycation End-products (RAGE)” (Monash University, priority 2017, dated 2024)
Values belong to the substance of their own block, whether it stands above or below them. Ends that are not written are not given here.

Experiments:
[1] = tested on: RAGE ligand-dependent signalling; settings: Putranto et al., 2013; cited from earlier work
U-87MG cells = settings: Putranto et al., 2013; cited from earlier work
CCR5 and RAGE = molecular target: T1, CCR5 and RAGE (Homo sapiens, UniProt P51681+Q15109); experiment: Ligand-induced BRET, Rluc8-tagged GPCR and RAGE/Venus; assay type: cell-based; settings: mCherry-RAGE338-361 co-expressed, FIG. 21F
T1 construct: expressed in transfected cells; host or cells: HEK293FT

CCR7 and RAGE = molecular target: T2, CCR7 and RAGE (Homo sapiens, UniProt P32248+Q15109); experiment: as above; assay type: cell-based; settings: mCherry-RAGE338-361 co-expressed, FIG. 21F
T2 construct: expressed in transfected cells; host or cells: HEK293FT

AT1 = molecular target: T3, AT1 (Homo sapiens, UniProt P30556); experiment: BRET between mCherry-RAGE338-361 and Nluc-AT1; assay type: cell-based; parameters: expressed in transfected cells; host or cells: HEK293FT, transient; settings: FIG. 21A
T3 sequence (P30556 1-359): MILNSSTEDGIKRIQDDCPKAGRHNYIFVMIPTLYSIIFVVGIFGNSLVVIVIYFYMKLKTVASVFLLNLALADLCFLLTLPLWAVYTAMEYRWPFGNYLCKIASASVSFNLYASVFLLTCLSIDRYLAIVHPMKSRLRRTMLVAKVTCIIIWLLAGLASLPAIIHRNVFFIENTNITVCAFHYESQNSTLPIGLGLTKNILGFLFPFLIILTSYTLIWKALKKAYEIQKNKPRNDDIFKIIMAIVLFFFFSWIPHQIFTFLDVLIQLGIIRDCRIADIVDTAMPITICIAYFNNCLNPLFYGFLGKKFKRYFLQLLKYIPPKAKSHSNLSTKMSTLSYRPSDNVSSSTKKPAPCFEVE

[2] = molecular target: T4, sphingosine 1-phosphate receptor 1 (S1PR1) and RAGE (Homo sapiens, UniProt P21453+Q15109); experiment: Ligand-induced BRET, Rluc8-tagged GPCR and RAGE/Venus; assay type: cell-based; settings: mCherry-RAGE338-361 co-expressed, FIG. 21F
T4 construct: expressed in transfected cells; host or cells: HEK293FT
T4 sequence (P21453 whole entry): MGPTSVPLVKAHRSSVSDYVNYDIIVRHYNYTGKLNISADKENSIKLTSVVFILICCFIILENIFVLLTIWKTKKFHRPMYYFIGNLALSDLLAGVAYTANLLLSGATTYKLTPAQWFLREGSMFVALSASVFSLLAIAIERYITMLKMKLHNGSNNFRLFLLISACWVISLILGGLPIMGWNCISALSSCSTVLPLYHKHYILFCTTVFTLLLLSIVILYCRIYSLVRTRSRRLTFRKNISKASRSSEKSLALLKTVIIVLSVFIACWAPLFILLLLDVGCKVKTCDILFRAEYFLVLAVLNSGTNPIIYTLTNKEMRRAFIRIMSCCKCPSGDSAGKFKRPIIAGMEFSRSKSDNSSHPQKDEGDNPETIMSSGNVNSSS
T4 sequence (Q15109 23-404): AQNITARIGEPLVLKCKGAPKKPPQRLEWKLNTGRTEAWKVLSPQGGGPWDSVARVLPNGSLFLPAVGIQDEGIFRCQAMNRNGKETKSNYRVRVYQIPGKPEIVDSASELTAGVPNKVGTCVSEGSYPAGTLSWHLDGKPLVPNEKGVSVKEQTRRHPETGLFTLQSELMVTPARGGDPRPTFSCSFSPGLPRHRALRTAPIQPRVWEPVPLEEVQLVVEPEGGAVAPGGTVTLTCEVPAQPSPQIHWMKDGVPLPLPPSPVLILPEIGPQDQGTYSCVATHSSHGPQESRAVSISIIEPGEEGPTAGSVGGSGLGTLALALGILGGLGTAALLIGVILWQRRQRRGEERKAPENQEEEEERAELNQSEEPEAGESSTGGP

CCR1 and RAGE = molecular target: T5, CCR1 and RAGE (Homo sapiens, UniProt P32246+Q15109); experiment: as above; assay type: cell-based; settings: mCherry-RAGE338-361 co-expressed, FIG. 21F
T5 construct: expressed in transfected cells; host or cells: HEK293FT
T5 sequence (P32246 whole entry): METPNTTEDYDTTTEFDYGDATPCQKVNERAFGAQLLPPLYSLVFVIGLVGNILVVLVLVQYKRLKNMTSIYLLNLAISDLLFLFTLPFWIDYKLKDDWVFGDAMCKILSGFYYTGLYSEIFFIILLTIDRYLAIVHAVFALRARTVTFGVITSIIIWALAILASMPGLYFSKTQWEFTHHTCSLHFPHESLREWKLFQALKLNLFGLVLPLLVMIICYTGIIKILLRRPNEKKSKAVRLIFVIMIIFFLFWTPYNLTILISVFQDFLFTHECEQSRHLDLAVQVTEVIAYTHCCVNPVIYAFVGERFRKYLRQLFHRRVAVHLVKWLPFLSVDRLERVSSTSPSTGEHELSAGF
T5 sequence (Q15109 23-404): as the sequence (Q15109 23-404) above

[3] = molecular target: T6, adrenergic α2B receptor and RAGE (Homo sapiens, UniProt P18089+Q15109); experiment: as above; assay type: cell-based; settings: mCherry-RAGE338-361 co-expressed, FIG. 21F
T6 construct: expressed in transfected cells; host or cells: HEK293FT
T6 sequence (P18089 whole entry): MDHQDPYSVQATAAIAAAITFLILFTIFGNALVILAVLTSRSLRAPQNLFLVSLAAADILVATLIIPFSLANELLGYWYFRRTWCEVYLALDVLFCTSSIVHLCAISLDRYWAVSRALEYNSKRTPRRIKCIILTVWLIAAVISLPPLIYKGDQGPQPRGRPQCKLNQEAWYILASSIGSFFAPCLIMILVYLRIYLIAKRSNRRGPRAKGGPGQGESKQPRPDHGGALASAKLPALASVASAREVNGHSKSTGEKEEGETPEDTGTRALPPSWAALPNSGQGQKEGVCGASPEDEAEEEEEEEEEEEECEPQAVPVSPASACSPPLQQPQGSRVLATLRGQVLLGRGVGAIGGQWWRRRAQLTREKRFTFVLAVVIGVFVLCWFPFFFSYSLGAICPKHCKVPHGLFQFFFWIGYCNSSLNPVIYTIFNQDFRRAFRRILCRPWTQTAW
T6 sequence (Q15109 23-404): as the sequence (Q15109 23-404) above

CXCR5 and RAGE = molecular target: T7, CXCR5 and RAGE (Homo sapiens, UniProt P32302+Q15109); experiment: as above; assay type: cell-based; settings: mCherry-RAGE338-361 co-expressed, FIG. 21F
T7 construct: expressed in transfected cells; host or cells: HEK293FT
T7 sequence (P32302 whole entry): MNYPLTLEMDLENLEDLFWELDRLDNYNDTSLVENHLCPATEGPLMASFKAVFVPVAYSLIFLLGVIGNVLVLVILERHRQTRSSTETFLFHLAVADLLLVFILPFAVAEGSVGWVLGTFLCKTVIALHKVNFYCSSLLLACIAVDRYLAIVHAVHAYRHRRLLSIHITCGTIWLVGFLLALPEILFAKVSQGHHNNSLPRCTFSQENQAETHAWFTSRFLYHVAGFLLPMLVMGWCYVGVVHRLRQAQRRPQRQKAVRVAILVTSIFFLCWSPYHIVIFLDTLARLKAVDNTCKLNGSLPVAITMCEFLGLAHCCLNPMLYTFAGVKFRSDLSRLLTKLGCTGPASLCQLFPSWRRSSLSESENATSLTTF
T7 sequence (Q15109 23-404): as the sequence (Q15109 23-404) above

[4] = molecular target: T8, neuropeptide Y1 receptor (NPY1R) and RAGE (Homo sapiens, UniProt P25929+Q15109); experiment: as above; assay type: cell-based; settings: mCherry-RAGE338-361 co-expressed, FIG. 21F
T8 construct: expressed in transfected cells; host or cells: HEK293FT

[5] = molecular target: T9, orexin receptor 2 and RAGE (Homo sapiens, UniProt O43614+Q15109); experiment: as above; assay type: cell-based; settings: mCherry-RAGE338-361 co-expressed, FIG. 21F
T9 construct: expressed in transfected cells; host or cells: HEK293FT
T9 sequence (O43614 whole entry): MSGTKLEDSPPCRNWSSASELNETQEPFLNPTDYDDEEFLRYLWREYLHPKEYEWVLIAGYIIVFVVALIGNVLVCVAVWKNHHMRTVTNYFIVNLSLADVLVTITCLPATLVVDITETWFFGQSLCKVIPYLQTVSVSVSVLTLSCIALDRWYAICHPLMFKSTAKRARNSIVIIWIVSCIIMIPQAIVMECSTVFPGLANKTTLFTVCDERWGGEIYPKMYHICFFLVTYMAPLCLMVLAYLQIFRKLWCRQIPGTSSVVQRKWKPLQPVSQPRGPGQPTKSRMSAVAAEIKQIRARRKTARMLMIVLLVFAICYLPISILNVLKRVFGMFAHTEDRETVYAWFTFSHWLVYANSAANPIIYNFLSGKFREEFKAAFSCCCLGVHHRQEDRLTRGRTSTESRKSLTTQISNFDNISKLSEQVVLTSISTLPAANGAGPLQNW
T9 sequence (Q15109 23-404): as the sequence (Q15109 23-404) above

[6] = molecular target: T10, vasopressin receptor 2 (V2R) and RAGE (Homo sapiens, UniProt P30518+Q15109); experiment: as above; assay type: cell-based; settings: mCherry-RAGE338-361 co-expressed, FIG. 21F
T10 construct: expressed in transfected cells; host or cells: HEK293FT

[7] = tested on: thyrotropin-releasing hormone receptor 1 (TRHR1) and RAGE; experiment: as above; assay type: cell-based; settings: mCherry-RAGE338-361 co-expressed, FIG. 21F
CCR9 and RAGE = molecular target: T11, CCR9 and RAGE (Homo sapiens, UniProt P51686+Q15109); experiment: as above; assay type: cell-based; settings: mCherry-RAGE338-361 co-expressed, FIG. 21F
T11 construct: expressed in transfected cells; host or cells: HEK293FT

CXCR2 and RAGE = molecular target: T12, CXCR2 and RAGE (Homo sapiens, UniProt P25025+Q15109); experiment: as above; assay type: cell-based; settings: mCherry-RAGE338-361 co-expressed, FIG. 21F
T12 construct: expressed in transfected cells; host or cells: HEK293FT
T12 sequence (P25025 whole entry): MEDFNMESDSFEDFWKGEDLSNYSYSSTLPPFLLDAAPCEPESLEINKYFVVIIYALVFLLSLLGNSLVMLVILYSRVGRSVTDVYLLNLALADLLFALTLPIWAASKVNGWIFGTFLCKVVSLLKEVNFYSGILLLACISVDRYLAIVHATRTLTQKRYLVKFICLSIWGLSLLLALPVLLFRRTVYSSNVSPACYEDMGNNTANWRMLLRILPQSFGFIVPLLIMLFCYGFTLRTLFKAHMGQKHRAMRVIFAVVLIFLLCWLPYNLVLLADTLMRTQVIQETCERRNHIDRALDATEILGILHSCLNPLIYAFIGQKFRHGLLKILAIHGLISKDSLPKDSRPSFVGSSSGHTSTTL
T12 sequence (Q15109 23-404): as the sequence (Q15109 23-404) above

AT1R and RAGE = molecular target: T13, AT1R and RAGE (Homo sapiens, UniProt P30556+Q15109); experiment: BRET between AT1R/Rluc8 and RAGE/Venus in HEK293FT cells; assay type: cell-based
T13 construct: expressed in transfected cells; host or cells: HEK293FT
T13 sequence (Q15109 23-404, one chain of several): as the sequence (Q15109 23-404) above

CCR2 and RAGE = molecular target: T14, CCR2 and RAGE (Homo sapiens, UniProt P41597+Q15109); experiment: Ligand-induced BRET, Rluc8-tagged GPCR and RAGE/Venus; assay type: cell-based; settings: mCherry-RAGE338-361 co-expressed, FIG. 21F
T14 construct: expressed in transfected cells; host or cells: HEK293FT
T14 sequence (P41597 whole entry): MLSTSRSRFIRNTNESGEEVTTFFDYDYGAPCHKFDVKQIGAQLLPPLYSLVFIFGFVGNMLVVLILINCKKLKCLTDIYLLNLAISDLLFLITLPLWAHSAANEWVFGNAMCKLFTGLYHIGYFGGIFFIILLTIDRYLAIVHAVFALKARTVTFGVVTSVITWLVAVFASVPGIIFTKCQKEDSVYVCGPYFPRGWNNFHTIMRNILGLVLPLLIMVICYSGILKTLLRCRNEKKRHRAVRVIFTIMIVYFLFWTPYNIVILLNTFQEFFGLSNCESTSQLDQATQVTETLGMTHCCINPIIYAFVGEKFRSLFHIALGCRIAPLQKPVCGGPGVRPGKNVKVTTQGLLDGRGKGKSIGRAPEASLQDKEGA
T14 sequence (Q15109 23-404): as the sequence (Q15109 23-404) above

CCR4 and RAGE = molecular target: T15, CCR4 and RAGE (Homo sapiens, UniProt P51679+Q15109); experiment: as above; assay type: cell-based; settings: mCherry-RAGE338-361 co-expressed, FIG. 21F
T15 construct: expressed in transfected cells; host or cells: HEK293FT

[8] = molecular target: T16, vasopressin receptor 1B (V1bR) and RAGE (Homo sapiens, UniProt P47901+Q15109); experiment: as above; assay type: cell-based; settings: mCherry-RAGE338-361 co-expressed, FIG. 21F
T16 construct: expressed in transfected cells; host or cells: HEK293FT

[9] = molecular target: T17, vasopressin receptor 1A (V1aR) and RAGE (Homo sapiens, UniProt P37288+Q15109); experiment: as above; assay type: cell-based; settings: mCherry-RAGE338-361 co-expressed, FIG. 21F
T17 construct: expressed in transfected cells; host or cells: HEK293FT
T17 sequence (P37288 whole entry): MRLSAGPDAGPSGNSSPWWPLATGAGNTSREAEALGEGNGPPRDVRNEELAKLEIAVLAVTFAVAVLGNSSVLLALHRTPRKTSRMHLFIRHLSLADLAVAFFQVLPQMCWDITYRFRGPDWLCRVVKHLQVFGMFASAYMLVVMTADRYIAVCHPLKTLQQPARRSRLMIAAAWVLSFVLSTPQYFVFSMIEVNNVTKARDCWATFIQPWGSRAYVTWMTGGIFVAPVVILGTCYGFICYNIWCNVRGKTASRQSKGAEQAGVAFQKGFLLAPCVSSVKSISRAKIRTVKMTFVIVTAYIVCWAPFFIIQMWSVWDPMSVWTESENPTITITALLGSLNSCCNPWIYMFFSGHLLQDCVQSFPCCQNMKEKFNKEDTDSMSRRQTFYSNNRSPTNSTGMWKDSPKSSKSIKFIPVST
T17 sequence (Q15109 23-404): as the sequence (Q15109 23-404) above

CCR6 and RAGE = molecular target: T18, CCR6 and RAGE (Homo sapiens, UniProt P51684+Q15109); experiment: as above; assay type: cell-based; settings: mCherry-RAGE338-361 co-expressed, FIG. 21F
T18 construct: expressed in transfected cells; host or cells: HEK293FT

[10] = molecular target: T19, adenosine A1 receptor (ADORA1) and RAGE (Homo sapiens, UniProt P30542+Q15109); experiment: as above; assay type: cell-based; settings: mCherry-RAGE338-361 co-expressed, FIG. 21F
T19 construct: expressed in transfected cells; host or cells: HEK293FT
T19 sequence (P30542 whole entry): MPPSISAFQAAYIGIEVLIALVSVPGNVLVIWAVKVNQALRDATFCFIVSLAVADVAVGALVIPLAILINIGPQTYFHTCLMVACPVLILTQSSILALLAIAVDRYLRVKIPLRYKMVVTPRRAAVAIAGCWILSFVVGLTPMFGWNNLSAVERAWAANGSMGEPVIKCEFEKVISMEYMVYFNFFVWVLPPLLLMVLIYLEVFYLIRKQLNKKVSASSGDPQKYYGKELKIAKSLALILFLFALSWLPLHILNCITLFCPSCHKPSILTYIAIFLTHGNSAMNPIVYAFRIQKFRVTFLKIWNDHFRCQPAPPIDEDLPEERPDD
T19 sequence (Q15109 23-404): as the sequence (Q15109 23-404) above

[11] = molecular target: T20, bradykinin receptor 2 (B2R) and RAGE (Homo sapiens, UniProt P30411+Q15109); experiment: as above; assay type: cell-based; settings: mCherry-RAGE338-361 co-expressed, FIG. 21F
T20 construct: expressed in transfected cells; host or cells: HEK293FT

CXCR4 and RAGE = molecular target: T21, CXCR4 and RAGE (Homo sapiens, UniProt P61073+Q15109); experiment: as above; assay type: cell-based; settings: mCherry-RAGE338-361 co-expressed, FIG. 21F
T21 construct: expressed in transfected cells; host or cells: HEK293FT

RAGE [12] = molecular target: T22, RAGE (Homo sapiens, UniProt Q15109); experiment: Ang II-induced pro-inflammatory signalling (p65-NFκB expression) in AT1R-CHO / RAGE-AT1R-CHO cells; assay type: cell-based; settings: RAGE-AT1R-CHO cells; 1 hour pre-treatment, 1 μg/mL; 1 μM Ang II; FIG. 6A
T22 construct: RAGE-AT1R—CHO cells expressing both full length RAGE and AT1R; expressed in transfected cells
T22 sequence (Q15109 23-404): as above

RAGE [13] = molecular target: T23, RAGE (Mus musculus, UniProt Q62151); experiment: Ang II-induced pro-inflammatory signalling in PMAEC; assay type: cell-based; settings: 1 hour pre-treatment, 1 μg/mL, 1 μM Ang II, FIG. 6B
T23 construct: in murine SVEC that are endogenously replete in RAGE expression; host or cells: Svec4-10 mouse endothelial cells
T23 sequence (Q62151 23-402): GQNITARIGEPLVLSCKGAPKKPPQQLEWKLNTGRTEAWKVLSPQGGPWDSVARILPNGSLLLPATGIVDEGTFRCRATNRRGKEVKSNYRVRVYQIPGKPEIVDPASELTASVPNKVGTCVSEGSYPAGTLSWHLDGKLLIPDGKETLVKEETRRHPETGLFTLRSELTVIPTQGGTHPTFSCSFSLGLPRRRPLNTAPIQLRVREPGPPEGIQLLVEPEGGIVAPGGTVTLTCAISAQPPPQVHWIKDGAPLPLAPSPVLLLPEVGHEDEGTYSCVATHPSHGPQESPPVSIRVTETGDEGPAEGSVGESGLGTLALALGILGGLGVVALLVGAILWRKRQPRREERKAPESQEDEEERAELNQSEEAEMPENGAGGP
Protocol: (§1) Additional experiments were conducted in the presence and absence of a 1 hour pre-treatment with a neutralizing antibody to RAGE (RAGEab; R&D systems; 1 μg/mL) or soluble RAGE22-331 (sRAGE; 1 μg/mL) prior to exposure to 1 μM Ang II or 5 ng/ml of the RAGE ligand, S100A8/A9.
(§2) Additional experiments were conducted in the presence and absence of a 1 hour pre-treatment with a pseudo-substrate for PKCζ (iPKCζ, 5 μM, Tocris).
(§3) To confirm the applicability of inhibition strategies to human tissues, additional experiments were undertaken in primary aortic endothelial cells from humans (Lonza). HAECs were grown in EGM-2 media. In each case cells were treated with mCherry-TAT (control), TAT-mCherry-RAGE362-404 (wild type), or TAT-mCherry-S391A-RAGE362-404 at a dose of 0.4 ng/ml for 30 min prior to treatment with either Ang II (1 μM), or S100A8/A9 (2 μg/ml; R&D systems) for 2h.

RAGE [14] = molecular target: T23, RAGE; experiment: S100A8/A9-induced pro-inflammatory signalling in PMAEC; assay type: cell-based; settings: 1 hour pre-treatment, 1 μg/mL, S100A8/A9 5 ng/ml, FIG. 6C
Protocol: as §1, §2, §3

RAGE [15] = molecular target: T22, RAGE; experiment: S100A8/A9-induced pro-inflammatory signalling in RAGE-AT1R-CHO cells; assay type: cell-based; settings: 1 hour pre-treatment, 1 μg/mL, S100A8/A9 5 ng/ml, FIG. 6A
Protocol: as §1, §3

Substance: S391E-RAGE387-395: fragment of RAGE cytosolic tail of Putranto et al., 2013, mimicking the phosphorylated state of RAGE (ELNQEEEPE; cytosolic tail peptide; UniProt Q15109 387-395, looked up, variant S391E)
inhibition of particular aspects of RAGE ligand-dependent signalling (apoptosis, cell migration and invasion) [1]: inhibitor
growth of U-87MG cells (intracellular adenosine triphosphate content) (U-87MG cells): not significantly affected

inhibition of the change in the ligand-induced BRET signal between the Rluc8-tagged GPCR and RAGE/Venus (CCR5 and RAGE): particularly clear inhibition
inhibition of the change in the ligand-induced BRET signal between the Rluc8-tagged GPCR and RAGE/Venus (CCR7 and RAGE): small yet discernible inhibition
BRET signal with extracellularly luciferase-tagged AT1 receptor (Nluc-AT1) (AT1): BRET signal is observed
inhibition of the change in the ligand-induced BRET signal between the Rluc8-tagged GPCR and RAGE/Venus [2]: particularly clear inhibition
inhibition of the change in the ligand-induced BRET signal between the Rluc8-tagged GPCR and RAGE/Venus (CCR1 and RAGE): particularly clear inhibition
inhibition of the change in the ligand-induced BRET signal between the Rluc8-tagged GPCR and RAGE/Venus [3]: particularly clear inhibition
inhibition of the change in the ligand-induced BRET signal between the Rluc8-tagged GPCR and RAGE/Venus (CXCR5 and RAGE): small yet discernible inhibition
inhibition of the change in the ligand-induced BRET signal between the Rluc8-tagged GPCR and RAGE/Venus [4]: particularly clear inhibition
inhibition of the change in the ligand-induced BRET signal between the Rluc8-tagged GPCR and RAGE/Venus [5]: particularly clear inhibition
inhibition of the change in the ligand-induced BRET signal between the Rluc8-tagged GPCR and RAGE/Venus [6]: particularly clear inhibition
inhibition of the change in the ligand-induced BRET signal between the Rluc8-tagged GPCR and RAGE/Venus [7]: particularly clear inhibition
inhibition of the change in the ligand-induced BRET signal between the Rluc8-tagged GPCR and RAGE/Venus (CCR9 and RAGE): particularly clear inhibition
inhibition of the change in the ligand-induced BRET signal between the Rluc8-tagged GPCR and RAGE/Venus (CXCR2 and RAGE): particularly clear inhibition
inhibition of the change in the ligand-induced BRET signal between the Rluc8-tagged GPCR and RAGE/Venus (AT1R and RAGE; angiotensin receptor AT1 (AT1R), mCherry-RAGE338-361 co-expressed, FIG. 21F): particularly clear inhibition
inhibition of the change in the ligand-induced BRET signal between the Rluc8-tagged GPCR and RAGE/Venus (CCR2 and RAGE): particularly clear inhibition
inhibition of the change in the ligand-induced BRET signal between the Rluc8-tagged GPCR and RAGE/Venus (CCR4 and RAGE): particularly clear inhibition
inhibition of the change in the ligand-induced BRET signal between the Rluc8-tagged GPCR and RAGE/Venus [8]: particularly clear inhibition
inhibition of the change in the ligand-induced BRET signal between the Rluc8-tagged GPCR and RAGE/Venus [9]: particularly clear inhibition
inhibition of the change in the ligand-induced BRET signal between the Rluc8-tagged GPCR and RAGE/Venus (CCR6 and RAGE): particularly clear inhibition
inhibition of the change in the ligand-induced BRET signal between the Rluc8-tagged GPCR and RAGE/Venus [10]: small yet discernible inhibition
inhibition of the change in the ligand-induced BRET signal between the Rluc8-tagged GPCR and RAGE/Venus [11]: particularly clear inhibition
inhibition of the change in the ligand-induced BRET signal between the Rluc8-tagged GPCR and RAGE/Venus (CXCR4 and RAGE): particularly clear inhibition
Substance: mCherry-RAGE338-361: the RAGE TMD with an extracellular juxta-membrane fragment linked to mCherry (LGTLALALGILGGLGTAALLIGVI; also: linked to mCherry)
BRET between full length RAGE and AT1 (saturation and kinetic assays) (AT1R and RAGE; overexpression of mCherry-RAGE338-361, FIG. 21B, 21C): modulates BRET between full length RAGE and AT1 in a dose dependent fashion

RAGE ligand-independent induction of pro-inflammatory signalling by Ang II (RAGE [12]): do not affect
Ang II-AT1R-dependent induction of pro-inflammatory signalling (RAGE [13]): does not attenuate
pro-inflammatory signalling induced by the RAGE ligand S100A8/A9 (RAGE [14]): able to attenuate
RAGE ligand-dependent induction of pro-inflammatory signalling by S100A8/A9 (RAGE [15]): block
Substance: sRAGE22-331: soluble RAGE decoy with ligand-binding affinity; extracellular ligand-binding V-C1-C2 domains of RAGE
